Assay results as given in publication PMC5052520, “The Important Role of Halogen Bond in Substrate Selectivity of Enzymatic Catalysis” (Scientific Reports, 2016).

What was measured:
Test in all cases: hydrolysis kinetics, product by liquid chromatography
Assay type in all cases: biochemical, Synechocystis sp. PCC 6803
N#CCc1cccc(Cl)c1 = test system: N#CCc1cccc(Cl)c1
From the text: (§1) hydrolysis kinetics, product by liquid chromatography on nitrilase (WT)

N#CCc1ccccc1Cl = test system: N#CCc1ccccc1Cl
From the text: as §1

N#CCc1ccc(Cl)cc1 = test system: N#CCc1ccc(Cl)cc1
From the text: as §1

Row | Substance | Km (N#CCc1cccc(Cl)c1) | kcat (N#CCc1cccc(Cl)c1) | kcat/Km (N#CCc1cccc(Cl)c1) | Km (N#CCc1ccccc1Cl) | kcat (N#CCc1ccccc1Cl) | kcat/Km (N#CCc1ccccc1Cl) | Km (N#CCc1ccc(Cl)cc1) | kcat (N#CCc1ccc(Cl)cc1) | kcat/Km (N#CCc1ccc(Cl)cc1)
1 | nitrilase (WT) (Synechocystis sp. PCC 6803 substr. Kazusa) | 460 ± 40 µM | 0.27 ± 0.02 s⁻¹ | 590 M⁻¹ s⁻¹ |  |  |  |  |  | 
2 | nitrilase (WT) (Synechocystis sp. PCC 6803 substr. Kazusa; H141W) |  |  |  | 650 ± 180 µM | 0.21 ± 0.05 s⁻¹ | 330 M⁻¹ s⁻¹ |  |  | 
3 | nitrilase (WT) (Synechocystis sp. PCC 6803 substr. Kazusa; T54Y) | 9600 ± 270 µM | 0.08 ± 0.13 s⁻¹ | 10 M⁻¹ s⁻¹ |  |  |  | 710 ± 30 µM | 0.56 ± 0.07 s⁻¹ | 560 M⁻¹ s⁻¹
